Five molecules from paper PMC11893383 (Frontiers in Immunology, 2025) can be followed below.

Experiment [1] deals with T1, SARS-CoV-2 Omicron B.1.1.529 receptor-binding domain (RBD), His-tagged (SARS-CoV-2 Omicron B.1.1.529 (BA.1), strain).
T1 construct: also called B.1.1.529 RBD; RBD Omicron B.1.1.529
The experiment is described as follows: BLI. Particulars: both partners purified.

In experiment [2] the target is T2, SARS-CoV-2 wild-type (WT) spike trimer (SARS-CoV-2, wild type (Wuhan-Hu-1 …, UniProt P0DTC2)).
T2 construct: also called spike protein
The experiment is described as follows: ELISA. The note with it: both partners purified.

B1: AB5-21 (antibody, V domains shown)
VH: EVQLVESGGGLVQPGGSLRLSCAASGLIVSSNYMHWVRQAPGEGLEWVSVIYSGGSTFYADSVKGRFTISRDNSKNTLYLQMNSLRAEDTAVYYCARGLGDPMDVWGQGTTVTVSS
VL: DIQLTQSPSFLSASVGDRVTITCRASQGISSDLAWYQQKPGKAPKLLINAASTLQNGVPSRFSGSGSGTEFTLSISSLQPEDFATYYCQQLNSYPPKLTFGGGTKVEIK
For the molecule B1, in experiment [1], binding was put at a Kd of 30 nM. That is a double-digit nanomolar value.

B2: AB5-16 (antibody, V domains shown)
VH: QALMVQSEAAVKKPGASVKVSCKATGDAFSNHYLHWLRQAPGQGLEWLGIINPGAGSTTYAQKFQGRLTVTTDTSTNTVYMELSSLRSDDTAVYYCARDGAFIPSSYYYGMDVWGQGTTVTVSS
VL: EIVLTQSPGTLALSPGERATLSCRASQSVSSSYLAWYQQKPGQAPRLLIYGASSRATGVPDRFSGSGSGTDFTLTVSSLEPEDFAVYYCQQREAFGQGTKVEVK
On to B2, for which the binding result in experiment [2] was “binds”.

B3: AB5-18 (antibody, V domains shown)
VH: EVQLVESGGGLVQPGGSLRLSCAASGITVTSNYMTWVRQAPGKGLEWVSLIYAGGSTFYADSVKGRFTVSRDKSKNTLYLQMNSLRGEDTAVYYCARDLQEAGGMDVWGQGTTVTVSS
VL: ENVLTQSPGTLSLSPGERATLSCRASQFVSSTFLAWYQQKPGQAPRLLMYGASNRATDIPDRFSGGGSGTDFTLTISRLEPEDFAVYYCQQFGSSPFTFGQGTKLEIK
For B3, the Kd in experiment [1] worked out at 3.4 nM.

B4: AB5-20 (antibody, V domains shown)
VH: QVQLVESGGGVVQPGRSLRLSCTASGFTFRHYGLHWVRQAPGKGLEWVAVILYDGSDEDYRDSVKGRFTISRDNSKNTLYLQMNSLRPEDTAVYYCAKQSGPYCSGGNCYSGHFDYWGQGTPVSVSS
VL: DIQMTQSPSSLSASVGDRVTITCQASQDISKSLSWYEQKPGKAPRLLIFEASNLETGVPSRFSGSGSGTSFSFTISSLQPEDFATYYCQQYDNVPLTFGGGTKVERK
Consider B4, for which the binding result in experiment [2] is recorded as “binds”.

B5: AB6-17 (antibody, V domains shown)
VH: QLQLQESGPGLVESSETLSLTCTVSSGSISRSTYYWGWIRQPPGKGMEWIGSISSGGSTYYNPSLNSRVTISIDTSKNQFSLKLRSVTAADTAVYYCARALQWPSPRIDYWAQGTLVTVSS
VL: DIQMTQSPSSLSASVGDRVTITCRASQSISSYLNWYQHKPGKAPKLLIYAASSLESGVPSRFTGSGSGTDFTLTIDSLQPEDFATYYCQQSYSTPLFTFGPGTTVDIK
B5: the binding result in experiment [2] is “binds”.
